± gives the standard deviation of the averaged measurements.
System: ATP
Experiment: switch fluorescence ratio, 500 uM ATP over buffer (Cy3 cluster intensity, sum of 5 cycles each) (fold (ratio)); higher = stronger signal-on switching upon ATP binding; sequences stand for … in TCGTCGGCAGCGTCAGATGTGTATAAGAGACAGTTTTTTTTTTTTTTTTTTTTTTTTT…TC
Conditions: aptamer strand: ATP DNA aptamer (quencher-CACCTGGGGGAGTATTGCGGAGGAAGG + anchor), 100 nM annealed; ATP concentration: 500 uM
In short: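 Clusters with intensities outside 100-1000 RFU were excluded. The remaining Cy3-labelled switching-strand clusters on a modified Illumina MiSeq flow-cell had been annealed to 100 nM quencher-labelled ATP aptamer and imaged in selection buffer, then after 15 min with 500 uM ATP at 22 °C, for five cycles separated by NaOH stripping and re-annealing. The fluorescence ratio, averaged per switch-domain sequence, is each cluster's summed target-cycle Cy3 intensity over its summed buffer-cycle Cy3 intensity.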
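Also: ATP exposure 15 min at 22 °C before imaging.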

TGCAGTTTGT
switch fluorescence ratio: 0.9929 ± 0.0065

AGGAGGTTGT
switch fluorescence ratio: 0.976 ± 0.017

AAGAAATTGG
switch fluorescence ratio: 0.9446 ± 0.0027

TCGAAGTTGT
switch fluorescence ratio: 1.01 ± 0.022

CGACCTTGCT
switch fluorescence ratio: 1.55 ± 0.26

GCGAATTAAT
switch fluorescence ratio: 0.979 ± 0.033

TAAGGGGCTT
switch fluorescence ratio: 0.992 ± 0.021

GCCCGTGGAA
switch fluorescence ratio: 0.9893 ± 0.0057

GGAACGAAGA
switch fluorescence ratio: 0.98 ± 0.028

ATAACCATCA
switch fluorescence ratio: 0.996 ± 0.057

ATGGGGTATG
switch fluorescence ratio: 0.987 ± 0.024

GAGATGCTGC
switch fluorescence ratio: 1.05 ± 0.017

GACAGTAGGG
switch fluorescence ratio: 1 ± 0.043

CATGCACACT
switch fluorescence ratio: 1.11 ± 0.053

ATGCTATGTG
switch fluorescence ratio: 0.9752 ± 0.0055

TTTTGGACGG
switch fluorescence ratio: 1.01 ± 0.032

TGCTATATTT
switch fluorescence ratio: 1.01 ± 0.024

GGCGATCACG
switch fluorescence ratio: 0.9834 ± 0.006

TGGGGAATAT
switch fluorescence ratio: 1.18 ± 0.38

GGGGGACTGC
switch fluorescence ratio: 1.01 ± 0.048

TGATAATTTT
switch fluorescence ratio: 1 ± 0.039

TCGGAGAGTC
switch fluorescence ratio: 1.26 ± 0.53

TTAATTTGTG
switch fluorescence ratio: 0.986 ± 0.017

ATGTGGGGGC
switch fluorescence ratio: 0.994 ± 0.03

TTGATGTGTT
switch fluorescence ratio: 1 ± 0.028

AAGTGTAAAA
switch fluorescence ratio: 1 ± 0.038

TTTGGCAATT
switch fluorescence ratio: 1.73 ± 0.57

TTGGGGGTCG
switch fluorescence ratio: 1.02 ± 0.034

CTGGGGGCGG
switch fluorescence ratio: 0.986 ± 0.018

ACGAGGTTGT
switch fluorescence ratio: 0.982 ± 0.025

TCCTTTTAAT
switch fluorescence ratio: 1.045 ± 0.0012

AGGGTTCGGG
switch fluorescence ratio: 1.01 ± 0.031

TGGGGTTCGG
switch fluorescence ratio: 1 ± 0.079

CGGGGAAATC
switch fluorescence ratio: 1.03 ± 0.035

TTGAGCCTCC
switch fluorescence ratio: 1.2 ± 0.15

TACTTGGCCG
switch fluorescence ratio: 1.01 ± 0.052

ATAATAGGTT
switch fluorescence ratio: 0.986 ± 0.028

TGATGTGGCG
switch fluorescence ratio: 0.994 ± 0.041

AATCGGGTGT
switch fluorescence ratio: 1.11 ± 0.047

TTGTAATTCG
switch fluorescence ratio: 1.02 ± 0.05

TGTTTGCTTG
switch fluorescence ratio: 0.993 ± 0.021

TTTCTAATGC
switch fluorescence ratio: 1.03 ± 0.014

ATGTCGGATT
switch fluorescence ratio: 1.002 ± 0.0021

AACTTATCGG
switch fluorescence ratio: 1.01 ± 0.036

AGGCTCGTAC
switch fluorescence ratio: 1.08 ± 0.09

TTTTCAAGGG
switch fluorescence ratio: 0.967 ± 0.015

CGGTAGCTCT
switch fluorescence ratio: 0.989 ± 0.037

ATGGTGAGTT
switch fluorescence ratio: 1 ± 0.015

CATGCGTTTT
switch fluorescence ratio: 1.04 ± 0.043

GTTTTGTGCA
switch fluorescence ratio: 0.9978 ± 0.0052

TGGTGGCGCG
switch fluorescence ratio: 0.976 ± 0.027

ACGAGTACGG
switch fluorescence ratio: 1.1 ± 0.025

TTTCGGAAAT
switch fluorescence ratio: 1.01 ± 0.016

TAAGTAGTAT
switch fluorescence ratio: 0.987 ± 0.017

TTTTCTGGCT
switch fluorescence ratio: 1.04 ± 0.035

TCGGTTTTTT
switch fluorescence ratio: 1.01 ± 0.038

TTTGGTTTT
switch fluorescence ratio: 0.988 ± 0.027

CAGCCCGATC
switch fluorescence ratio: 1.22 ± 0.032

TTTTTGGAGT
switch fluorescence ratio: 1.05 ± 0.07

CAGGGATGGG
switch fluorescence ratio: 0.961 ± 0.023

ATGGATATTA
switch fluorescence ratio: 1.03 ± 0.046

CCTCTGGGGA
switch fluorescence ratio: 1.82 ± 0.94

TAGTCTATTT
switch fluorescence ratio: 0.977 ± 0.02

CCTGGGTTTT
switch fluorescence ratio: 1.06 ± 0.05

GAAAAAGTGC
switch fluorescence ratio: 0.989 ± 0.095

AGAGGAGCGG
switch fluorescence ratio: 1.02 ± 0.013

ACGATGGGCA
switch fluorescence ratio: 1.05 ± 0.015

TCGACGCGCC
switch fluorescence ratio: 5.12 ± 0.52

TTCAGAGTTG
switch fluorescence ratio: 0.985 ± 0.095

GCTAAAATGG
switch fluorescence ratio: 0.9916 ± 0.0076

TTGGTGGAAG
switch fluorescence ratio: 1.02 ± 0.0057

CACTTTGTTT
switch fluorescence ratio: 1.01 ± 0.066

TTTTATAGGT
switch fluorescence ratio: 0.998 ± 0.017

AATCTCGGCC
switch fluorescence ratio: 0.986 ± 0.015

TGAGCGTGAG
switch fluorescence ratio: 1.01 ± 0.015

TGGGGTTCAT
switch fluorescence ratio: 0.985 ± 0.025

ACTCTATACA
switch fluorescence ratio: 1.11 ± 0.088

GCTAGAGACG
switch fluorescence ratio: 1.06 ± 0.054

GCAGTAGGGG
switch fluorescence ratio: 0.989 ± 0.015

AAGGCATGAT
switch fluorescence ratio: 1.0128 ± 0.00018

GTAGGCAACA
switch fluorescence ratio: 1.01 ± 0.068

TTATGTGCTG
switch fluorescence ratio: 1.02 ± 0.041

TAGAATTGTG
switch fluorescence ratio: 1.21 ± 0.33

TGGTAATGGA
switch fluorescence ratio: 0.958 ± 0.046

CGACACTATT
switch fluorescence ratio: 1.06 ± 0.034

CGGGATATGG
switch fluorescence ratio: 1.03 ± 0.045

AGTTTCGGAA
switch fluorescence ratio: 1.021 ± 0.0038

CGGGGGCAGC
switch fluorescence ratio: 1.01 ± 0.06

GGGGAATGAT
switch fluorescence ratio: 0.98 ± 0.021

GACCCTATAA
switch fluorescence ratio: 1.11 ± 0.066

AGTGTCGCTG
switch fluorescence ratio: 1.008 ± 0.0012

TTGGGAACTA
switch fluorescence ratio: 1.01 ± 0.02

ACGGGGTGCG
switch fluorescence ratio: 0.986 ± 0.032

AGATCATGCG
switch fluorescence ratio: 1.02 ± 0.045

TGAGCCCCGG
switch fluorescence ratio: 1.03 ± 0.028

GATGGCAGCA
switch fluorescence ratio: 1.021 ± 0.0086

GTGGCTCAGG
switch fluorescence ratio: 1.05 ± 0.054

GCTTTGTGAT
switch fluorescence ratio: 1.01 ± 0.066

CGGTTAAACG
switch fluorescence ratio: 0.975 ± 0.019

GATGAACCTA
switch fluorescence ratio: 1.04 ± 0.024

— the supplement of paper PMC10126150
